Assay results: US20230357367A1

What was measured:
Assay in all cases: DELFIA, IgG titrated on captured biotin-peptide
Set-up in all cases: unit not given beside the values
[1] = biological target: SARS-CoV-2 spike S2 peptide 1145-1159, biotinylated (SARS-CoV-2)
[2] = biological target: SARS-CoV-2 spike S2 peptide 1137-1151, biotinylated (SARS-CoV-2)
[3] = biological target: SARS-CoV-2 spike S2 peptide 1153-1167, biotinylated (SARS-CoV-2)
[4] = biological target: SARS-CoV-2 spike S2 peptide 1141-1155, biotinylated (SARS-CoV-2)
[5] = biological target: SARS-CoV-2 spike S2 peptide 1149-1167 (C-terminal end of the stem helix), biotinylated (SARS-CoV-2)
[6] = biological target: SARS-CoV-2 spike S2 peptide 1133-1147, biotinylated (SARS-CoV-2)
[7] = biological target: SARS-CoV-2 spike S2 peptide 1157-1171, biotinylated (SARS-CoV-2)
[8] = biological target: SARS-CoV-2 spike S2 peptide 1143-1162 (stem helix region), biotinylated (SARS-CoV-2)
[9] = biological target: SARS-CoV-2 spike S2 peptide 1149-1163, biotinylated (SARS-CoV-2)

B1: AB-1 (antibody, V domains shown)
VH: EVQLVESGAEVKKPGESLKISCKGSGYTFTRYWIGWVRQMPGKGLEWMGIIYPGDSDVRYSPSFQGHVTISADKSISTAYLQWNSLKASDTAMYYCARLPQYCSKGVCYRWFDPWGQGTLVTVSS
VL: EIVLTQSPSSVSASVGDRVTITCRASQGISSWLAWYQQKPGKAPKLLIYAASSLQSGVPSRFSGSGSGTDFTLTISSLQPEDFATYYCQQGHSFPYTFGQGTNLEIK
B1 gave an AUC [1] of 1.7e+06, an AUC [2] of 21500 and an AUC [3] of 3.32e+06. The AUC [4] was 18000, the AUC [5] was 3.27e+06 and the AUC [6] was 27100. For the same binder, the AUC [7] was 30000, the AUC [8] was 3.52e+06 and the AUC [9] was 3.52e+06.
